Laboratory results published in patent US7166472B2, “Method for the identification of agents that inhibit or promote cataracts and uses thereof” (The General Hospital Corporation, priority 2000, dated 2007).

Tests used:
[1] = Metal reduction capacity of tanned calf lens α-crystallin, Cu(II); format: biochemical; conditions: α-crystallin preparation 100 μg/ml, Cu(II)-glycine 25 μM, one hour 37° C.
Procedure: (§1) Studies of Tanned Calf Lens Crystalin in Assay of Crystallin Protein for Metal Reduction Capacity—α-Crystallin (10 mg/ml) from calf lens was modified by reaction with 3-HK (100 μM), 3-HAA (100 μM), or ASC (100 μM) in PBS, ph 7.4, for 12 hours at 4° C. in the dark. Control samples were incubated with ascorbic acid (100 μM) or without added reductant. The tanning incubation solutions also contained triethylenetetramine (TETA, 200 μM) to prevent cross-linking of the protein. After incubation, free reductant was removed from the tanned α-crystallin preparations by exhaustive dialysis at 4EC in the dark utilizing PBS, pH 7.4, containing CHELEX™ 100 chelating ion exchange resin (BioRad, Hercules, Calif.). The various modified α-crystallin preparations (100 μg/ml) were co-incubated with either Cu(II)-glycine glycine (25 μM) or Fe(III)-citrate (25 μM) for one hour at 37° C. and assayed for metal reduction capacity using the BC and BP spectrophotometric assay as detailed above. Incubated and dialyzed α-crystallin (100 μg/ml) and untreated α-crystallin (100 μg/ml) preparations were used for procedural control.
(§2) 3-HK: α-crystallin reduced nearly 100% of the available Cu(II) and approximately 20% of the available Fe(III). 3-HAA: α-crystallin reduced approximately 65% of the available Cu(II).

[2] = Metal reduction capacity of tanned calf lens α-crystallin, Fe(III); format: biochemical; conditions: α-crystallin preparation 100 μg/ml, Fe(III)-citrate 25 μM, one hour 37° C.
Procedure: as §1, §2

Molecule	reduction of available Cu(II) [1]	reduction of available Fe(III) [2]
α-Crystallin: unmodified α-crystallin from calf lens, procedural control (protein, UniProt P02470 1-173; P02510 1-175, looked up) Alpha-crystallin A chain: MDIAIQHPWFKRTLGPFYPSRLFDQFFGEGLFEYDLLPFLSSTISPYYRQSLFRTVLDSGISEVRSDRDKFVIFLDVKHFSPEDLTVKVQEDFVEIHGKHNERQDDHGYISREFHRRYRLPSNVDQSALSCSLSADGMLTFSGPKIPSGVDAGHSERAIPVSREEKPSSAPSS Alpha-crystallin B chain: MDIAIHHPWIRRPFFPFHSPSRLFDQFFGEHLLESDLFPASTSLSPFYLRPPSFLRAPSWIDTGLSEMRLEKDRFSVNLDVKHFSPEELKVKVLGDVIEVHGKHEERQDEHGFISREFHRKYRIPADVDPLAITSSLSSDGVLTVNGPRKQASGPERTIPITREEKPAVTAAPKK	approximately 35%	negligible percentage
3-HK: α-crystallin: calf lens α-crystallin modified (tanned) by reaction with 3-HK, free metabolite removed by dialysis (protein, UniProt P02470 1-173; P02510 1-175, looked up, modified with 3-hydroxykynurenine, calf lens α-crystallin modified (tanned) by reaction with 3-HK, free metabolite removed by dialysis) Alpha-crystallin A chain: MDIAIQHPWFKRTLGPFYPSRLFDQFFGEGLFEYDLLPFLSSTISPYYRQSLFRTVLDSGISEVRSDRDKFVIFLDVKHFSPEDLTVKVQEDFVEIHGKHNERQDDHGYISREFHRRYRLPSNVDQSALSCSLSADGMLTFSGPKIPSGVDAGHSERAIPVSREEKPSSAPSS Alpha-crystallin B chain: MDIAIHHPWIRRPFFPFHSPSRLFDQFFGEHLLESDLFPASTSLSPFYLRPPSFLRAPSWIDTGLSEMRLEKDRFSVNLDVKHFSPEELKVKVLGDVIEVHGKHEERQDEHGFISREFHRKYRIPADVDPLAITSSLSSDGVLTVNGPRKQASGPERTIPITREEKPAVTAAPKK	~100%	approximately 20%
